Source: paper PMC5282582

Key:
Test in all cases: SEC-MALS; 100 μl of purified protein injected at 12 mg/ml (high concentration); Superdex 200 10/300 GL, room temperature, 10 mM HEPES pH 7.4, 200 mM NaCl, 5 mM β-ME, 0.4 ml/min
[1] = biological target: mutant α_(Y126F)β heterodimer of human NAD-dependent isocitrate dehydrogenase (human) (UniProt P50213)
[2] = biological target: mutant α_(Y126F)γ heterodimer of human NAD-dependent isocitrate dehydrogenase (human) (UniProt P50213)
[3] = biological target: αβ heterodimer of human NAD-dependent isocitrate dehydrogenase (human) (UniProt P50213)
[4] = biological target: αγ heterodimer of human NAD-dependent isocitrate dehydrogenase (human) (UniProt P50213)

Sequence of mutant α_(Y126F)β heterodimer of human NAD-dependent isocitrate dehydrogenase (P50213 whole entry, looked up, stated change not applied, one chain of several): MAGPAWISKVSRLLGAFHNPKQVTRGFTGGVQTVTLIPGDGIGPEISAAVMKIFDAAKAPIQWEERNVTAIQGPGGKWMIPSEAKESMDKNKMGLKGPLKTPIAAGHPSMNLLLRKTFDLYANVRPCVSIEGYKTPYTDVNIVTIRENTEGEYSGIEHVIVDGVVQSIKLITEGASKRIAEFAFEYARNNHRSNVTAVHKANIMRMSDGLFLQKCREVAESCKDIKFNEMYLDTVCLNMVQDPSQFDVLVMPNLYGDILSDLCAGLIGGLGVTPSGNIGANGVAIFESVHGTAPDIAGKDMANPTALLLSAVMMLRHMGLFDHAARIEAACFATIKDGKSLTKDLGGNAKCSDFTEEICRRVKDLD
Sequence of αβ heterodimer of human NAD-dependent isocitrate dehydrogenase (P50213 whole entry, looked up, one chain of several): as the sequence (P50213 whole entry, looked up, stated change not applied, one chain of several) above

Work on “mutant α_(Y126F)β heterodimer of human NAD-dependent isocitrate dehydrogenase (from UniProt P50213 55-366) (complex)” yielded a stoichiometry N [1] of 2.
“mutant α_(Y126F)γ heterodimer of human NAD-dependent isocitrate dehydrogenase (from UniProt P50213 55-366; P51553 40-393) (complex)” gave a stoichiometry N [2] of 2.
“αβ heterodimer of human NAD-dependent isocitrate dehydrogenase (from UniProt P50213 28-366) (complex)” showed a stoichiometry N [3] of 2.
With “αγ heterodimer of human NAD-dependent isocitrate dehydrogenase (from UniProt P50213 28-366; P51553 40-393) (complex)” the stoichiometry N [4] was 2.
